The text below walks through data of patent publication US20150266962A1.

Assay [1] deals with human IL-13Rα2 on the surface of human tumour cell lines (human) (UniProt Q14627). Put plainly: FACS on A375 cells.
Assay [2] shares this target. Put plainly: FACS, 10 µg/mL, U87MG (glioblastoma) cells. A general note: Flow cytometry measures light scatter and fluorescence of single cells or particles in a stream.
The target is the same in assay [3]. Put plainly: FACS, 10 µg/mL, H460 (lung, cisplatin resistant) cells.
Assay [4] shares this target. Put plainly: FACS, 10 µg/mL, PC3MM2 (prostate) cells.
Assay [5] shares this target. Put plainly: cell-based or functional assay.
For assay [6] the target is unchanged. Put plainly: FACS, 10 µg/mL, SW626 (ovarian) cells.
For assay [7] the target is unchanged. Nature of the assay: FACS, 10 µg/mL, Hs766T (pancreatic) cells.
Assay [8] shares this target. Put plainly: FACS, 10 µg/mL, A498 (renal) cells.
Assay [9] shares this target. Put plainly: FACS, 10 µg/mL, A375 (melanoma) cells.
For assay [10] the target is unchanged. Put plainly: competition ELISA on A375 cells, competitor biotinylated ch07. (In general: In an ELISA, binding on a coated surface is turned into a signal by an enzyme label.)
Assay [11] has the same target. Put plainly: cell-based ELISA on A375 cells (given as ED50).

human IL-13Rα2 on the surface of human tumour cell lines (human), sequence (Q14627 27-380): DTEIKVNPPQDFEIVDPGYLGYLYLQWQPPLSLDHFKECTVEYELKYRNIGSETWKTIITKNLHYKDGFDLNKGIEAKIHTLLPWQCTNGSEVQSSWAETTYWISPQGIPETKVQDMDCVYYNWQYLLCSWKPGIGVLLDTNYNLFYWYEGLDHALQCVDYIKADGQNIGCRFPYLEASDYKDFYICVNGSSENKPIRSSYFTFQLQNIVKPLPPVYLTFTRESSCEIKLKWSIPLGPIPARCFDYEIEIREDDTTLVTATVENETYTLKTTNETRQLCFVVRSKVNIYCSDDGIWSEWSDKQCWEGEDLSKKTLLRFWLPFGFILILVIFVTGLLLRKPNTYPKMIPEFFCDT

B1: humanized antibody hu08 v1.0 HC/v1.1 LC (antibody, IgG1, V domains shown)
VH: EVQLVESGGGLVQPGGSLRLSCAASGFTFSRNGMSWVRQAPGKGLEWVATVSSGGSYIYYADSVKGRFTISRDNAKNSLYLQMNSLRAEDTAVYYCARQGTTALATRFFDVWGQGTLVTVSS
VL: DIQMTQSPSSLSASVGDRVTITCKASQDVGTAVAWYQQIPGKAPKLLIYSASYRSTGVPDRFSGSGSGTDFSFIISSLQPEDFATYYCQHHYSAPWTFGGGTKVEIK
In the case of B1, the EC50 (in general, the concentration that produces a half-maximal response) in assay [1] came out at 6.52 nM. That is a single-digit nanomolar value.

B2: humanized antibody hu08 v1.1 HC/v1.0 LC (antibody, IgG1, V domains shown)
VH: EVQLVESGGGLVQPGGSLRLSCAASGFTFSRNGMSWVRQTPDKRLEWVATVSSGGSYIYYADSVKGRFTISRDNAKNSLYLQMSSLRAEDTAVYYCARQGTTALATRFFDVWGQGTLVTVSS
VL: DIQMTQSPSSLSASVGDRVTITCKASQDVGTAVAWYQQKPGKAPKLLIYSASYRSTGVPSRFSGSGSGTDFTLTISSLQPEDFATYYCQHHYSAPWTFGGGTKVEIK
In turn, B2 returned an EC50 in assay [1] of 4.15 nM.

B3: humanized antibody hu08 v1.1 HC/v1.1 LC (antibody, IgG1, V domains shown)
VH: EVQLVESGGGLVQPGGSLRLSCAASGFTFSRNGMSWVRQTPDKRLEWVATVSSGGSYIYYADSVKGRFTISRDNAKNSLYLQMSSLRAEDTAVYYCARQGTTALATRFFDVWGQGTLVTVSS
VL: DIQMTQSPSSLSASVGDRVTITCKASQDVGTAVAWYQQIPGKAPKLLIYSASYRSTGVPDRFSGSGSGTDFSFIISSLQPEDFATYYCQHHYSAPWTFGGGTKVEIK
Take B3: in assay [1], the EC50 was found to be 5.16 nM.

B4: murine anti-IL-13Rα2 antibody mu07 (antibody, mouse IgG1, V domains shown)
VH: QVQLKESGPGLVAPSQSLSINCTVSGFSLTKYGVHWIRQSPGKGLEWLGVKWAGGSTDYNSALMSRLTISKDNNKSQVFLKMNSLQSDDSAMYYCARDHRDAMDYWGQGTSVTVSS
VL: QVVLTQSPAIMSASPGERVTMTCTASLSVSSTYLHWYHQKPGSSPKLWIYSTSNLASGVPARFSGSGSGTSYSLTISSMEAEDAATYYCHQYHRSPLTFGSGTKLELK
The molecule B4 showed a Mean Fluorescent Intensity in assay [2] of 61000. Besides, the Mean Fluorescent Intensity in [3] came to 28000. Besides, the Mean Fluorescent Intensity in assay [4] turned out to be 84000. In addition, in assay [5], the % internalization, 15 min, A375 came out at 63.1%; the % internalization, 15 min, H460R is 74.4%; the % internalization, 15 min, Hs766T stood at 69.6%; the % internalization, 15 min, PC3MM2 turned out to be 88.6%. In assay [5], this molecule returned a % internalization, 4 hours, A375 of 38.1%; a % internalization, 4 hours, H460R of 38.4%; a % internalization, 4 hours, Hs766T of 69%; a % internalization, 4 hours, PC3MM2 of 50.3%. In addition, in assay [5], the internalized after a 1 hour incubation with A375 cells at 37° C. was found to be 38%. Also, the Mean Fluorescent Intensity in assay [6] is 9000. This molecule also came in with a Mean Fluorescent Intensity in assay [7] of 13000. The molecule also showed a Mean Fluorescent Intensity in assay [8] of 13000. For the same molecule, the Mean Fluorescent Intensity in [9] was found to be 53000.

B5: chimeric antibody ch07 (antibody, human IgG1, V domains shown)
VH: QVQLKESGPGLVAPSQSLSINCTVSGFSLTKYGVHWIRQSPGKGLEWLGVKWAGGSTDYNSALMSRLTISKDNNKSQVFLKMNSLQSDDSAMYYCARDHRDAMDYWGQGTSVTVSS
VL: QVVLTQSPAIMSASPGERVTMTCTASLSVSSTYLHWYHQKPGSSPKLWIYSTSNLASGVPARFSGSGSGTSYSLTISSMEAEDAATYYCHQYHRSPLTFGSGTKLELK
For the molecule B5, the IC50 (usually the concentration at which inhibition is half-maximal) in [10] worked out at 17.3 nM. In addition, the EC50 in [11] was determined as 0.85 nM.

B6: hu07 heavy chain v1.5 paired with chimeric light chain (antibody, V domains shown)
VH: EVQLVESGGGLVQPGGSLRLSCAASGFSLTKYGVHWVRQAPGKGLEWVGVKWAGGSTDYNSALMSRFTISKDNAKNSLYLQMNSLRAEDTAVYYCARDHRDAMDYWGQGTLVTVSS
VL: QVVLTQSPAIMSASPGERVTMTCTASLSVSSTYLHWYHQKPGSSPKLWIYSTSNLASGVPARFSGSGSGTSYSLTISSMEAEDAATYYCHQYHRSPLTFGSGTKLELK
On to B6, for which, in assay [10], the concentration for half-maximal inhibition (IC50) stood at 7.67 nM. The same molecule had an EC50 in assay [11] of 0.87 nM.

B7: hu07 heavy chain v1.5 / light chain v1.0 (antibody, IgG1, V domains shown)
VH: EVQLVESGGGLVQPGGSLRLSCAASGFSLTKYGVHWVRQAPGKGLEWVGVKWAGGSTDYNSALMSRFTISKDNAKNSLYLQMNSLRAEDTAVYYCARDHRDAMDYWGQGTLVTVSS
VL: DIQMTQSPSSLSASVGDRVTITCTASLSVSSTYLHWYQQKPGKAPKLLIYSTSNLASGVPSRFSGSGSGTDFTLTISSLQPEDFATYYCHQYHRSPLTFGGGTKVEIK
In assay [10], B7 showed an IC50 of 12.3 nM. In addition, the EC50 in [11] is 1.17 nM.

B8: hu07 heavy chain v1.5 / light chain v1.1 (antibody, IgG1, V domains shown)
VH: EVQLVESGGGLVQPGGSLRLSCAASGFSLTKYGVHWVRQAPGKGLEWVGVKWAGGSTDYNSALMSRFTISKDNAKNSLYLQMNSLRAEDTAVYYCARDHRDAMDYWGQGTLVTVSS
VL: DIQMTQSPSSLSASVGDRVTITCTASLSVSSTYLHWYQQKPGSSPKLLIYSTSNLASGVPSRFSGSGSGTSFTLTISSLQPEDFATYYCHQYHRSPLTFGGGTKVEIK
Take B8: the IC50 in [10] was 19 nM. For the same molecule, the EC50 in [11] is 1.29 nM.

B9: murine anti-IL-13Rα2 antibody mu08 (antibody, mouse IgG1, V domains shown)
VH: EVQLVESGGDLVRPGGSLQLSCAASGFTFSRNGMSWVRQTPDRRLEWVATVSSGGSYIYYADSVKGRFTISRDNARNTLYLQMSSLKSEDTAMYYCARQGTTALATRFFDVWGAGTTVTVSS
VL: DIVMTQSHKFISTSVGDRVSITCKASQDVGTAVAWYQQIPGQSPKLLIYSASYRSTGIPDRFTGSGSGTDFSFIISSVQAEDLALYYCQHHYSAPWTFGGGTTLDIK
In assay [2], B9 yielded a Mean Fluorescent Intensity of 62000. Further, the Mean Fluorescent Intensity in assay [3] came out at 22000. This molecule also returned a Mean Fluorescent Intensity in assay [4] of 72000. In assay [5], this molecule registered a % internalization, 15 min, A375 of 68%; a % internalization, 15 min, H460R of 55.9%; a % internalization, 15 min, Hs766T of 64.1%; a % internalization, 15 min, PC3MM2 of 81.9%. In [5], this molecule gave a % internalization, 4 hours, A375 of 61.8%; a % internalization, 4 hours, H460R of 47.4%; a % internalization, 4 hours, Hs766T of 76.3%; a % internalization, 4 hours, PC3MM2 of 41.6%. Also, in assay [5], the internalized after a 1 hour incubation with A375 cells at 37° C. was determined as 31%. Moreover, the Mean Fluorescent Intensity in assay [6] is 8000. The same molecule had a Mean Fluorescent Intensity in assay [7] of 14000. Moreover, the Mean Fluorescent Intensity in assay [8] was determined as 5000. In addition, the Mean Fluorescent Intensity in assay [9] came to 46000.

B10: chimeric antibody ch08 (antibody, human IgG1, V domains shown)
VH: EVQLVESGGDLVRPGGSLQLSCAASGFTFSRNGMSWVRQTPDRRLEWVATVSSGGSYIYYADSVKGRFTISRDNARNTLYLQMSSLKSEDTAMYYCARQGTTALATRFFDVWGAGTTVTVSS
VL: DIVMTQSHKFISTSVGDRVSITCKASQDVGTAVAWYQQIPGQSPKLLIYSASYRSTGIPDRFTGSGSGTDFSFIISSVQAEDLALYYCQHHYSAPWTFGGGTTLDIK
In turn, B10 came in with an EC50 in assay [1] of 5.64 nM.
